Measured values published in the supplement of paper PMC10567573.

B1: ADD1 (parent)
chain: FASDGDSGTCSPLRHSFQKQQREK
B2: FOXJ1 (parent)
chain: SAIYKWITDNFCYFRHADPTWQNS

Variants of: B1
Experiment: protein stability index of a GFP-peptide fusion (GPS, HEK-293T) (PSI 1-6); higher = more stable
Conditions: c terminus: a fixed tail appended
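Note: lentivirally expressed fusions sorted by FACS into six bins by GFP to DsRed ratio, PSI derived from sequencing read proportions per bin multiplied by bin number.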

Protein stability index, by site and new letter:
A2: K 4.66; C 3.54; I 2.84; T 4.39; M 3.86; R 4.38; H 2.76; Y 4.33; W 4.27; D 5.17; N 4.79; P 4.27; V 3.07; S 4.47; F 4.6; G 4.11; Q 3.61; L 3.7; E 5.18
T9: H 3.45; I 2.49; L 3.58; S 3.82; W 3.71; C 3.52; N 4.13; R 3.33; D 4.36; E 4.79; A 4.16; P 4.35; M 2.4; V 3.31; Y 2.16; F 1.64; Q 4.04
G5: N 4.29; L 3.83; A 4.17; I 3.68; Y 3.42; W 1.56; V 3.94; Q 4.66; K 3.76; F 4.01; H 3.43; E 4.74; D 4.29; S 4.17; R 3.35; M 3.62; C 3.57; T 4.37; P 3.67
D6: A 2.41; R 3.44; H 2.29; T 2.9; S 3.12; G 3.31; W 3.8; Y 1.7; M 2.27; C 3.01; Q 3.17; N 3.18; I 1.92; F 1.97; K 2.8; L 2.6; P 3.34; V 3.13; E 3.98
S7: V 1.49; Y 3.04; Q 3.76; I 1.49; F 2.72; A 3.82; G 3.46; N 4.14; M 3.14; T 3.19; C 2.96; W 2.06; L 2.11; P 3.85; R 4.01; H 3.42; K 3.69; E 4.26; D 4.18
D4: K 2.51; Y 2.66; G 2.07; M 2.54; Q 3.14; L 3.48; V 2.44; A 2.14; R 2.81; N 2.99; C 2.72; P 4.26; F 2.41; I 2.54; H 3.08; E 4.37; T 2.69
F1: Q 4.57; P 5.76; R 5.07; H 5.18; D 4.91; W 5.13; G 4.99; S 5.12; C 4.17; M 5.2; N 5.19; I 5.29; K 4.22; T 5.55; Y 4.07; E 5.62
G8: Y 2.5; I 3.15; T 3.75; A 2.82; C 3.1; N 3.5; E 3.92; R 3.98; F 1.44; P 4.47; H 3.86; M 2.96; V 3.81; Q 3.7; D 4.29; L 3.2; S 3.58; K 3.57
C10: K 4.17; I 4.24; N 5.17; H 4.01; A 4.67; D 4.68; F 1.87; M 3.75; L 3.85; G 4.49; E 4.66
S3: R 3.25; K 3.75; L 3.51; T 3.99; N 3.72; M 4.33; A 3.58; Y 1.93; G 3.98; W 2.72; Q 4.5; H 4.05; V 4.09; I 3.88; P 2.37; F 1.92; C 3.02; D 4.03

Variants of: B2
Experiment: as above
Conditions: c terminus: a fixed tail appended

Protein stability index, by site and new letter:
W21: F 1.85; A 3.28; I 3.5; Q 2.9; C 2.94; D 2.94; M 3.42; N 3.38; P 1.99; V 3.94; S 1.61; H 2.11; R 2.27; T 4.47; K 3.58; G 2.24; E 3.54
R15: G 3.31; F 2.57; M 2.66; N 3.46; H 5.96; S 2.76; A 1.81; L 2.95; P 2.53; E 4.29; I 2.32; D 2.25; T 1.69; W 2.97; C 3.16; Y 2.33
T20: D 2.67; K 2.23; P 3.38; F 1.78; Y 2.55; I 2.42; C 3; A 2.54; S 3.35; W 4.37; L 2.08; R 3.92
N23: K 2.13; C 2.97; T 3.31; R 3.24; S 2.62; F 3.19; D 3.65; G 4.27; H 4.01; A 2.99; W 3.47; Y 3.52; Q 3.42; V 2.39; M 2.75; P 3.02; E 3.59; L 2.46
F14: Y 2.97; E 2.23; C 3.92; K 2.58; V 3.33; P 2.04; R 1.75; N 2.14; M 2.21; S 2.13; G 2.33; W 2.73; I 4.22; H 2.56; D 2.64
D18: A 3.1; S 3.4; G 2.24; I 2.82; R 2.77; F 1.9; Y 2.95; Q 2.86; V 2.75; T 2.81; M 3.77; H 4.66; N 3.12; W 2.55; C 2.02; L 2.74; E 3.65
A17: K 2.1; R 3.34; H 3.05; T 2.16; M 4.41; N 3.14; C 3.02; I 2.91; Q 2.7; P 3.54; S 2.61; G 1.74; Y 2.86
Q22: D 2.56; S 4.33; H 3.75; F 3.37; M 3.06; P 3.76; W 1.86; C 3.38; G 2.93; E 2.19; N 4.82
S24: M 2.55; W 2.37; F 3.32; P 3.85; R 2.43; T 2.96; K 2.17; D 4.48; N 3.76; E 2.97; H 2.34
P19: E 3.59; C 2.7; I 3.63; N 2.77; S 2.63; F 4.12; M 4.18; A 3.17; G 2.04; L 1.54; T 4.32; D 1.69; V 3.02; K 3.4; R 3.65; Q 3.21; W 2.35
H16: T 2.32; S 3.5; L 4.65; R 5.03; G 2.72; F 3.57; I 1.75; Q 3.32; A 2.55; D 2.33; P 3.62; W 1.82; Y 2.27; K 1.7
